Experimental data taken from US20210130870, “VISUAL AND MODULAR DETECTION OF NUCLEIC ACIDS WITH ENZYME-ASSISTED NANOTECHNOLOGY” (National University of Singapore, published 2021).

Target: Taq DNA polymerase (UniProt P19821 P19821:1-832)
Assay: BLI; 50 mM NaCl, 1.5 mM MgCl2, 50 mM Tris-HCl pH 8.5; immobilized biotin-aptamer; sensorgram only
Settings: tags: GoTaq (Promega); label: biotin on aptamer for BLI; 20 bp duplex with 20 nt inverter overhang, conserved region CAATGTACAGTATTG

Taq DNA polymerase, sequence (P19821 whole entry, one chain of several): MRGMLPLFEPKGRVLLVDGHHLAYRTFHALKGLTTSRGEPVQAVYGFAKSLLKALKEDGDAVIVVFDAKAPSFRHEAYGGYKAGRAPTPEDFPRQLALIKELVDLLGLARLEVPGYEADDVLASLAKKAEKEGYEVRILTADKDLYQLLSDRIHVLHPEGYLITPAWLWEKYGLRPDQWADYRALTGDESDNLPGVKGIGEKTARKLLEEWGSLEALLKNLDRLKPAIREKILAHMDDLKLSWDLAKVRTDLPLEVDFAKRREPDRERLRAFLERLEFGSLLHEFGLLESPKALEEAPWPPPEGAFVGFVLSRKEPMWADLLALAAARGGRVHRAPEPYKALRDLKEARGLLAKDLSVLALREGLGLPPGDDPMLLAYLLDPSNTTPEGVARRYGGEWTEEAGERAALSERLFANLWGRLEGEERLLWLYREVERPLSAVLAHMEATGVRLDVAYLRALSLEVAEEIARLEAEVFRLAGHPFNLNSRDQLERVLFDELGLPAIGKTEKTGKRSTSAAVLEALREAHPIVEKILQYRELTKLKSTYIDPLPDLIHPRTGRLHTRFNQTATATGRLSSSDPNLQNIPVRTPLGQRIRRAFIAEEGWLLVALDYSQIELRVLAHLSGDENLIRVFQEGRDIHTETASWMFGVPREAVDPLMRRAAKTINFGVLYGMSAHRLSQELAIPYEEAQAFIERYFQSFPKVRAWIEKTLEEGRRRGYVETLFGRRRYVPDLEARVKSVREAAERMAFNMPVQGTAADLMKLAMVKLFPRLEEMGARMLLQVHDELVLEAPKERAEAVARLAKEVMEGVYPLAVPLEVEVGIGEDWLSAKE

B1: HPV16 L2 aptamer/inverter recognition nanostructure (structured_DNA)
DNA 1: AAGTATCTGTAATAAAGTCACAATGTACAGTATTG
DNA 2: TGACTTTATTACAGATACTTCTACAACCCCGGTACCATCT
- binding result: binds
